Test results reported in PMC9482650, “Quantitative fragmentomics allow affinity mapping of interactomes” (Nature Communications, 2022).

T1: ARHGEF11, O15085
T1 sequence (O15085 42-136, limits assumed, looked up): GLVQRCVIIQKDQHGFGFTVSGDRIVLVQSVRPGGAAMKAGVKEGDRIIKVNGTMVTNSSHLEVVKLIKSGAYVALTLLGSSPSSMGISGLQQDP

T2: DFNB31_1, Q9P202
T2 sequence (Q9P202 135-233, limits assumed, looked up): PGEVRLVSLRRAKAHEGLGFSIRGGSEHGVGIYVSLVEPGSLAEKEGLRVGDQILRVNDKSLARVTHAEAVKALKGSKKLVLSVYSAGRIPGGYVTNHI

T3: GRIP1_7, Q9Y3R0
T3 sequence (Q9Y3R0 999-1096, limits assumed, looked up): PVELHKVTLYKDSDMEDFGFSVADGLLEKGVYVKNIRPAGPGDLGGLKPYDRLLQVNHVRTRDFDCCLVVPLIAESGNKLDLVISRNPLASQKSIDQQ

T4: HTRA4, P83105
T4 sequence (P83105 378-476, limits assumed, looked up): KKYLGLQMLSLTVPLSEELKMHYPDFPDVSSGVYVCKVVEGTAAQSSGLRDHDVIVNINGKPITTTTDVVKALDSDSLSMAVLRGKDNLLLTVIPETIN

T5: LIN7A, O14910
T5 sequence (O14910 103-200, limits assumed, looked up): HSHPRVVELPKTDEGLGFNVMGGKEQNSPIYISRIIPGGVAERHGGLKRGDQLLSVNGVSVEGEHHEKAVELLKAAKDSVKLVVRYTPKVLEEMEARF

T6: LNX2_2, Q8N448
T6 sequence (Q8N448 334-432, limits assumed, looked up): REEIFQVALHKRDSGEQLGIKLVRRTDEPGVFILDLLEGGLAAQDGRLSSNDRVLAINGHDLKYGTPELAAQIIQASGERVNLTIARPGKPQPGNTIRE

T7: MPDZ_10, O75970
T7 sequence (O75970 1624-1722, limits assumed, looked up): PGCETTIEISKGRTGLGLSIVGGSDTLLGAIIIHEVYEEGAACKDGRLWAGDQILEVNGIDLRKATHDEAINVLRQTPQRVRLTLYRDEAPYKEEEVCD

T8: MPP2, Q14168
T8 sequence (Q14168 180-250, limits assumed, looked up): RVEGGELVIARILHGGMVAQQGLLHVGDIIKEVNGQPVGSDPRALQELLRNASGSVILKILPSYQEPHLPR

T9: NHERF3_4, Q5T2W1
T9 sequence (Q5T2W1 373-468, limits assumed, looked up): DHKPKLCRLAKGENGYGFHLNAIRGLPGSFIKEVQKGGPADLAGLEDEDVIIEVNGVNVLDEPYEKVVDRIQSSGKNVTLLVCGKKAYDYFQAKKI

T10: PCLO, Q9Y6V0
T10 sequence (Q9Y6V0 4491-4600, limits assumed, looked up): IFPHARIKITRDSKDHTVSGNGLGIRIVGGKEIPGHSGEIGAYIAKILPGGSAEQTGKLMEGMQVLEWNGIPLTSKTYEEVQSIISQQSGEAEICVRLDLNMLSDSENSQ

T11: RADIL, Q96JH8
T11 sequence (Q96JH8 971-1071, limits assumed, looked up): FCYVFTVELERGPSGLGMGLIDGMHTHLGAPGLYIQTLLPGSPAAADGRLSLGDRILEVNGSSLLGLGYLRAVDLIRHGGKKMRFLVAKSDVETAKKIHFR

T12: TX1BP3, O14907
T12 sequence (O14907 10-122, limits assumed, looked up): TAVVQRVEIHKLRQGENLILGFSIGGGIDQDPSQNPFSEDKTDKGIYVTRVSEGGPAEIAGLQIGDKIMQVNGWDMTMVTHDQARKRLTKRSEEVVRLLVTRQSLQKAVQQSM

B1: CRB2, Q5IJ48 (peptide)
chain: LKVPPEERLI
B2: SLC2A7, Q6PXP3 (peptide)
chain: TASPAKETSF
B3: FLVCR1, Q9Y5Y0 (peptide)
chain: MLSKQSESAI

Each binder was assayed against T1, ARHGEF11, O15085 (assay: holdup assay). Settings: plain residues with an end cap or a label only (N-terminal biotin on a linker: ado-ado).
Set-up: key: below the threshold = too weak to quantify, mostly under pKd 3.1 to 4

pKd | Binder
below the threshold | B1
below the threshold | B2
below the threshold | B3

Each binder was assayed against T2, DFNB31_1, Q9P202 (assay: holdup assay). Settings: plain residues with an end cap or a label only (N-terminal biotin on a linker: ado-ado).
Set-up: key: below the threshold = too weak to quantify, mostly under pKd 3.1 to 4

pKd | Binder
below the threshold | B1
3.94 | B2
4.86 | B3

The binders below were run against FRMPD2_1, Q68DX3 (assay: holdup assay). Settings: plain residues with an end cap or a label only (N-terminal biotin on a linker: ado-ado).
Sequence of FRMPD2_1, Q68DX3 (Q68DX3 770-861): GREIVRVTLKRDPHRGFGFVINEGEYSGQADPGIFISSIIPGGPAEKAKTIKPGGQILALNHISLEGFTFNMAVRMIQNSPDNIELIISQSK
Set-up: key: below the threshold = too weak to quantify, mostly under pKd 3.1 to 4

pKd | Binder
below the threshold | B1
below the threshold | B2
below the threshold | B3

The binders below were run against FRMPD2_2, Q68DX3 (assay: holdup assay). Settings: plain residues with an end cap or a label only (N-terminal biotin on a linker: ado-ado).
Sequence of FRMPD2_2, Q68DX3 (Q68DX3 944-1038): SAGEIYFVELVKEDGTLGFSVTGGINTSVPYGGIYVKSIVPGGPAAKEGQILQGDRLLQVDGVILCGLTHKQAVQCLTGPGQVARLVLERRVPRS
Set-up: key: below the threshold = too weak to quantify, mostly under pKd 3.1 to 4

pKd | Binder
below the threshold | B1
below the threshold | B2
below the threshold | B3

The binders below were run against GOPC, Q9HD26 (assay: holdup assay). Settings: plain residues with an end cap or a label only (N-terminal biotin on a linker: ado-ado).
Set-up: key: below the threshold = too weak to quantify, mostly under pKd 3.1 to 4

pKd | Binder
below the threshold | B1
below the threshold | B2
below the threshold | B3

The binders below were run against T3, GRIP1_7, Q9Y3R0 (assay: holdup assay). Settings: plain residues with an end cap or a label only (N-terminal biotin on a linker: ado-ado).
Set-up: key: below the threshold = too weak to quantify, mostly under pKd 3.1 to 4

pKd | Binder
below the threshold | B1
below the threshold | B2
below the threshold | B3

What follows are binders tested against T4, HTRA4, P83105 (assay: holdup assay). Settings: plain residues with an end cap or a label only (N-terminal biotin on a linker: ado-ado).
Set-up: key: below the threshold = too weak to quantify, mostly under pKd 3.1 to 4

pKd | Binder
below the threshold | B1
below the threshold | B2
3.91 | B3

These binders were tested against IL16_3, Q14005 (assay: holdup assay). Settings: plain residues with an end cap or a label only (N-terminal biotin on a linker: ado-ado).
Sequence of IL16_3, Q14005 (Q14005 1107-1207): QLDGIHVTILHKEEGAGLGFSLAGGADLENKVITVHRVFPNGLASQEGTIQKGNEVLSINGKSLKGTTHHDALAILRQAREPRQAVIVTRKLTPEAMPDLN
Set-up: key: below the threshold = too weak to quantify, mostly under pKd 3.1 to 4

pKd | Binder
below the threshold | B1
below the threshold | B2
below the threshold | B3

Each binder was assayed against Inadl_10, Q8NI35 (assay: holdup assay). Settings: plain residues with an end cap or a label only (N-terminal biotin on a linker: ado-ado).
Sequence of Inadl_10, Q8NI35 (Q8NI35 1673-1763): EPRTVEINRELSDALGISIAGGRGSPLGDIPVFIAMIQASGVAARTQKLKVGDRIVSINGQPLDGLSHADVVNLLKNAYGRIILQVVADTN
Set-up: key: below the threshold = too weak to quantify, mostly under pKd 3.1 to 4

pKd | Binder
below the threshold | B1
below the threshold | B2
below the threshold | B3

Each binder was assayed against Inadl_5, Q8NI35 (assay: holdup assay). Settings: plain residues with an end cap or a label only (N-terminal biotin on a linker: ado-ado).
Sequence of Inadl_5, Q8NI35 (Q8NI35 673-780): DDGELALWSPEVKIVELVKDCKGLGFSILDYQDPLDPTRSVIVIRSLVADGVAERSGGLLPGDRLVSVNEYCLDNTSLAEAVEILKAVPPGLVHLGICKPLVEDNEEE
Set-up: key: below the threshold = too weak to quantify, mostly under pKd 3.1 to 4

pKd | Binder
below the threshold | B1
below the threshold | B2
below the threshold | B3

These binders were tested against Inadl_9, Q8NI35 (assay: holdup assay). Settings: plain residues with an end cap or a label only (N-terminal biotin on a linker: ado-ado).
Sequence of Inadl_9, Q8NI35 (Q8NI35 1530-1615): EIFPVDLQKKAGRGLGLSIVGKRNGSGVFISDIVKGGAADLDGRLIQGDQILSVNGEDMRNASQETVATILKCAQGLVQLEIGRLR
Set-up: key: below the threshold = too weak to quantify, mostly under pKd 3.1 to 4

pKd | Binder
below the threshold | B1
below the threshold | B2
below the threshold | B3

What follows are binders tested against T5, LIN7A, O14910 (assay: holdup assay). Settings: plain residues with an end cap or a label only (N-terminal biotin on a linker: ado-ado).
Set-up: key: below the threshold = too weak to quantify, mostly under pKd 3.1 to 4

pKd | Binder
below the threshold | B1
3.77 | B2
below the threshold | B3

Each binder was assayed against LNX1_3, Q8TBB1 (assay: holdup assay). Settings: plain residues with an end cap or a label only (N-terminal biotin on a linker: ado-ado).
Sequence of LNX1_3, Q8TBB1 (Q8TBB1 500-596): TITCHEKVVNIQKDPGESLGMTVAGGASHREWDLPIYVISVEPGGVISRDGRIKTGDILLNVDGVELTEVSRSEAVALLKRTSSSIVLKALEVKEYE
Set-up: key: below the threshold = too weak to quantify, mostly under pKd 3.1 to 4

pKd | Binder
below the threshold | B1
below the threshold | B2
below the threshold | B3

Each binder was assayed against T6, LNX2_2, Q8N448 (assay: holdup assay). Settings: plain residues with an end cap or a label only (N-terminal biotin on a linker: ado-ado).
Set-up: key: below the threshold = too weak to quantify, mostly under pKd 3.1 to 4

pKd | Binder
3.72 | B1
below the threshold | B2
below the threshold | B3

These binders were tested against MAGI1_1, Q96QZ7 (assay: holdup assay). Settings: plain residues with an end cap or a label only (N-terminal biotin on a linker: ado-ado).
Sequence of MAGI1_1, Q96QZ7 (Q96QZ7 1-106): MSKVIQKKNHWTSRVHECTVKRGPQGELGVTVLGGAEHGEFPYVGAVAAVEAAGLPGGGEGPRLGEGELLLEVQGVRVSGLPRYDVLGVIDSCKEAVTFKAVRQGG
Set-up: key: below the threshold = too weak to quantify, mostly under pKd 3.1 to 4

pKd | Binder
below the threshold | B1
below the threshold | B2
below the threshold | B3

What follows are binders tested against MAGI1_2, Q96QZ7 (assay: holdup assay). Settings: plain residues with an end cap or a label only (N-terminal biotin on a linker: ado-ado).
Sequence of MAGI1_2, Q96QZ7 (Q96QZ7 456-580): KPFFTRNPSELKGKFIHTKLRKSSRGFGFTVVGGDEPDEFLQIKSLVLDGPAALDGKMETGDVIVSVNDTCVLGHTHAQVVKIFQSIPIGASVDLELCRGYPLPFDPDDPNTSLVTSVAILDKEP
Set-up: key: below the threshold = too weak to quantify, mostly under pKd 3.1 to 4

pKd | Binder
below the threshold | B1
below the threshold | B2
below the threshold | B3

What follows are binders tested against MAGI3_2, Q5TCQ9 (assay: holdup assay). Settings: plain residues with an end cap or a label only (N-terminal biotin on a linker: ado-ado).
Sequence of MAGI3_2, Q5TCQ9 (Q5TCQ9 398-503): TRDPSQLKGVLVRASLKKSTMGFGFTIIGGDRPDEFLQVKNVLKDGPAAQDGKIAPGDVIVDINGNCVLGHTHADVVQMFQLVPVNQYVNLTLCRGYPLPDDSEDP
Set-up: key: below the threshold = too weak to quantify, mostly under pKd 3.1 to 4

pKd | Binder
below the threshold | B1
below the threshold | B2
4.45 | B3

The binders below were run against T7, MPDZ_10, O75970 (assay: holdup assay). Settings: plain residues with an end cap or a label only (N-terminal biotin on a linker: ado-ado).
Set-up: key: below the threshold = too weak to quantify, mostly under pKd 3.1 to 4

pKd | Binder
below the threshold | B1
below the threshold | B2
below the threshold | B3

These binders were tested against T8, MPP2, Q14168 (assay: holdup assay). Settings: plain residues with an end cap or a label only (N-terminal biotin on a linker: ado-ado).
Set-up: key: below the threshold = too weak to quantify, mostly under pKd 3.1 to 4

pKd | Binder
below the threshold | B1
below the threshold | B2
below the threshold | B3

Each binder was assayed against T9, NHERF3_4, Q5T2W1 (assay: holdup assay). Settings: plain residues with an end cap or a label only (N-terminal biotin on a linker: ado-ado).
Set-up: key: below the threshold = too weak to quantify, mostly under pKd 3.1 to 4

pKd | Binder
below the threshold | B1
below the threshold | B2
below the threshold | B3

Each binder was assayed against T10, PCLO, Q9Y6V0 (assay: holdup assay). Settings: plain residues with an end cap or a label only (N-terminal biotin on a linker: ado-ado).
Set-up: key: below the threshold = too weak to quantify, mostly under pKd 3.1 to 4

pKd | Binder
below the threshold | B1
below the threshold | B2
below the threshold | B3

These binders were tested against T11, RADIL, Q96JH8 (assay: holdup assay). Settings: plain residues with an end cap or a label only (N-terminal biotin on a linker: ado-ado).
Set-up: key: below the threshold = too weak to quantify, mostly under pKd 3.1 to 4

pKd | Binder
below the threshold | B1
below the threshold | B2
below the threshold | B3

Each binder was assayed against TJP1_2, Q07157 (assay: holdup assay). Settings: plain residues with an end cap or a label only (N-terminal biotin on a linker: ado-ado).
Sequence of TJP1_2, Q07157 (Q07157 181-274): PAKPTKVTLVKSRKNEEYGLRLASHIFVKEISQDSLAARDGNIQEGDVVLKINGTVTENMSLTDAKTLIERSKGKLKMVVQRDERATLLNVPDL
Set-up: key: below the threshold = too weak to quantify, mostly under pKd 3.1 to 4

pKd | Binder
below the threshold | B1
below the threshold | B2
below the threshold | B3

The binders below were run against TJP2_1, Q9UDY2 (assay: holdup assay). Settings: plain residues with an end cap or a label only (N-terminal biotin on a linker: ado-ado).
Sequence of TJP2_1, Q9UDY2 (Q9UDY2 24-128): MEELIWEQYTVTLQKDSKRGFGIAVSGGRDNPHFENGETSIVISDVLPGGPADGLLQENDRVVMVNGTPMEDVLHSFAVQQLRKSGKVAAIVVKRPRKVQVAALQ
Set-up: key: below the threshold = too weak to quantify, mostly under pKd 3.1 to 4

pKd | Binder
below the threshold | B1
below the threshold | B2
below the threshold | B3

What follows are binders tested against T12, TX1BP3, O14907 (assay: holdup assay). Settings: plain residues with an end cap or a label only (N-terminal biotin on a linker: ado-ado).
Set-up: key: below the threshold = too weak to quantify, mostly under pKd 3.1 to 4

pKd | Binder
below the threshold | B1
3.79 | B2
4.1 | B3
